US20200115460A1 (TEIJIN PHARMA, published 2020)

Columns and labels:
[1] = molecular target: T1, wild-type human IGF-I receptor (FLAG tag, Example 7) (human, UniProt P08069 31-1367); test: Cell ELISA, 1 nM antibody, fixed HEK 293T cells
T1 construct: Expressed on transfected HEK 293T cells
Protocol: (§1) On the next day, each plasmid DNA was transfected into the cells by lipofection. On the following day, the HEK 293T cells were detached with 0.25% trypsin/EDTA and were suspended in a broth. The HEK 293T cells were added to a 96-well plate (coated with poly-D-lysine) at a concentration of 0.8×10⁵ cells/well and were incubated at 37° C. under conditions of 5% CO₂ overnight. The medium was removed from the 96-well plate, and the cells were immobilized with a 10% buffered formalin (Mildform® 10 NM, Wako). The 10% buffered formalin was replaced with a blocking buffer (3% BSA/PBS/sodium azide), and the plate was used in ELISA.
(§2) After washing with a washing liquid twice, anti-mouse-IgG antibody-HRP conjugate solutions (50 μL) adjusted to predetermined concentrations with 0.1% skimmed milk/3% BSA/PBS were added to respective wells and were subjected to reaction at room temperature for about 1 hour. After washing with a washing liquid twice, 100 μL of a substrate (TMB) was added to each well to start the reaction. After about 30 minutes, 100 μL of 0.5 M sulfuric acid was added to each well to stop the reaction, and the absorbances at 450 nm was measured. The value of the absorbance at 450 nm was evaluated as the avidity.

[2] = molecular target: T2, Substitution 3 of the CR domain (human IGF-I receptor G315S/S316T, FLAG tag) (human, UniProt P08069 31-1367); test: Cell ELISA, 1 nM antibody, fixed HEK 293T cells
T2 construct: Expressed on transfected HEK 293T cells
Protocol: as §1, §2

[3] = molecular target: T3, Substitution 2 of the CR domain (human IGF-I receptor E294D, FLAG tag) (human, UniProt P08069 31-1367); test: Cell ELISA, 1 nM antibody, fixed HEK 293T cells
T3 construct: Expressed on transfected HEK 293T cells
Protocol: as §1, §2

[4] = molecular target: T4, Substitution 1 of the CR domain (human IGF-I receptor D245N/A247T, FLAG tag) (human, UniProt P08069 31-1367); test: Cell ELISA, 1 nM antibody, fixed HEK 293T cells
T4 construct: Expressed on transfected HEK 293T cells
Protocol: as §1, §2

[5] = molecular target: T5, wild-type rat IGF-I receptor (FLAG tag, Example 7) (rat, UniProt P24062 31-1370); test: Cell ELISA, 1 nM antibody, fixed HEK 293T cells
T5 construct: Expressed on transfected HEK 293T cells
Protocol: as §1, §2

human insulin receptor = molecular target: T6, human insulin receptor (human, UniProt P06213 28-1382); test: Cell ELISA on HEK 293T cells expressing human insulin receptor
T6 construct: whole, on cells; Expressed on transfected HEK 293T cells; also called INSR; hINSR
Protocol: The HEK 293T cells after the lipofection were added to a 96-well plate (coated with poly-D-lysine) at a concentration of 0.8×10⁵ cells/well (about 180 μL/well) and were immobilized with 10% buffered formalin (Mildform® 10 NM, Wako), followed by blocking with phosphate buffer containing 3% BSA. The plate was used in ELISA.
In ELISA, antibody solutions (30 μL) adjusted to predetermined concentrations with 0.1% skimmed milk/3% BSA/PBS were added to respective wells and were subjected to reaction at room temperature for about 1 hour. After washing with a washing liquid (tris buffer containing Tween) twice, anti-mouse-IgG antibody-ALP conjugate solutions (30 μL) adjusted to predetermined concentrations with 0.1% skimmed milk/3% BSA/PBS were added to respective wells and were subjected to reaction at room temperature for about 1 hour. After washing with a washing liquid twice, 100 μL of a substrate (PNPP) was added to each well to start the reaction.

mouse IGF-I receptor = molecular target: T7, mouse IGF-I receptor (mouse, UniProt Q60751 31-1373); test: Cell ELISA on P3U1 cells expressing the receptor
T7 construct: Expressed on transfected P3U1 cells; also called NP_034643

rat IGF-I receptor = molecular target: T8, rat IGF-I receptor (rat, UniProt P24062 31-1370); test: Cell ELISA on P3U1 cells expressing the receptor
T8 construct: Expressed on transfected P3U1 cells; also called NP_494694

hINSR[L2]/hIGFIR = molecular target: T9, hINSR[L2]/hIGFIR (human); test: Cell ELISA, 10 nM antibody, fixed P3U1 cells expressing the chimera
T9 construct: Chimeric receptor on transfected P3U1 cells
Protocol: (§3) The gene of hIGFIR[L1-L2]/hINSR as Substitution 1 is shown in SEQ ID NO: 23; the gene of hINSR[L1-L2]/hIGFIR as Substitution 2 is shown in SEQ ID NO: 24; the gene of hINSR[L1]/hIGFIR as Substitution 3 is shown in SEQ ID NO: 25; and the gene of hINSR[L2]/hIGFIR as Substitution 4 is shown in SEQ ID NO: 26. After the lipofection, the P3U1 cells were cultured at least overnight and were added to a 96-well plate (coated with poly-D-lysine) at a concentration of 0.8×10⁵ cells/well and immobilized with 10% buffered formalin (Mildform® 10 NM, Wako), followed by blocking with phosphate buffer containing 3% BSA. The plate was used in ELISA.
(§4) In ELISA, 30 μL of an antibody solution adjusted to 10 nM with 0.1% skimmed milk/3% BSA/PBS was added to each well and was subjected to reaction at room temperature for about 1.5 hours. After washing with a washing liquid twice, 30 μL of an anti-mouse-IgG antibody-HRP conjugate solution adjusted to 5 nM with 0.1% skimmed milk/3% BSA/PBS was added to each well and was subjected to reaction at room temperature for about 1 hour. After washing with a washing liquid twice, 50 μL of a substrate (TMB) was added to each well to start the reaction. After about 20 minutes, 50 μL of 0.5 M sulfuric acid was added to each well to stop the reaction. The absorbances at 450 nm and 550 nm were measured, and the difference between absorbance values at 450 nm and 550 nm was calculated. The avidity was calculated based on the difference between absorbance values at 450 nm and 550 nm for cells (Mock cells, SEQ ID NO: 22) transfected with a vector not containing the gene of each substitution as a standard value 1 (Table 3).

hIGFIR[L1-L2]/hINSR = molecular target: T10, hIGFIR[L1-L2]/hINSR (human); test: as above
T10 construct: Chimeric receptor on transfected P3U1 cells
Protocol: as §3, §4

hINSR[L1]/hIGFIR = molecular target: T11, hINSR[L1]/hIGFIR (human); test: as above
T11 construct: Chimeric receptor on transfected P3U1 cells
Protocol: as §3, §4

hINSR[L1-L2]/hIGFIR = molecular target: T12, hINSR[L1-L2]/hIGFIR (human); test: as above
T12 construct: Chimeric receptor on transfected P3U1 cells
Protocol: as §3, §4

T7 sequence (Q60751 other isoform, or with tags, fused parts or gaps limits assumed): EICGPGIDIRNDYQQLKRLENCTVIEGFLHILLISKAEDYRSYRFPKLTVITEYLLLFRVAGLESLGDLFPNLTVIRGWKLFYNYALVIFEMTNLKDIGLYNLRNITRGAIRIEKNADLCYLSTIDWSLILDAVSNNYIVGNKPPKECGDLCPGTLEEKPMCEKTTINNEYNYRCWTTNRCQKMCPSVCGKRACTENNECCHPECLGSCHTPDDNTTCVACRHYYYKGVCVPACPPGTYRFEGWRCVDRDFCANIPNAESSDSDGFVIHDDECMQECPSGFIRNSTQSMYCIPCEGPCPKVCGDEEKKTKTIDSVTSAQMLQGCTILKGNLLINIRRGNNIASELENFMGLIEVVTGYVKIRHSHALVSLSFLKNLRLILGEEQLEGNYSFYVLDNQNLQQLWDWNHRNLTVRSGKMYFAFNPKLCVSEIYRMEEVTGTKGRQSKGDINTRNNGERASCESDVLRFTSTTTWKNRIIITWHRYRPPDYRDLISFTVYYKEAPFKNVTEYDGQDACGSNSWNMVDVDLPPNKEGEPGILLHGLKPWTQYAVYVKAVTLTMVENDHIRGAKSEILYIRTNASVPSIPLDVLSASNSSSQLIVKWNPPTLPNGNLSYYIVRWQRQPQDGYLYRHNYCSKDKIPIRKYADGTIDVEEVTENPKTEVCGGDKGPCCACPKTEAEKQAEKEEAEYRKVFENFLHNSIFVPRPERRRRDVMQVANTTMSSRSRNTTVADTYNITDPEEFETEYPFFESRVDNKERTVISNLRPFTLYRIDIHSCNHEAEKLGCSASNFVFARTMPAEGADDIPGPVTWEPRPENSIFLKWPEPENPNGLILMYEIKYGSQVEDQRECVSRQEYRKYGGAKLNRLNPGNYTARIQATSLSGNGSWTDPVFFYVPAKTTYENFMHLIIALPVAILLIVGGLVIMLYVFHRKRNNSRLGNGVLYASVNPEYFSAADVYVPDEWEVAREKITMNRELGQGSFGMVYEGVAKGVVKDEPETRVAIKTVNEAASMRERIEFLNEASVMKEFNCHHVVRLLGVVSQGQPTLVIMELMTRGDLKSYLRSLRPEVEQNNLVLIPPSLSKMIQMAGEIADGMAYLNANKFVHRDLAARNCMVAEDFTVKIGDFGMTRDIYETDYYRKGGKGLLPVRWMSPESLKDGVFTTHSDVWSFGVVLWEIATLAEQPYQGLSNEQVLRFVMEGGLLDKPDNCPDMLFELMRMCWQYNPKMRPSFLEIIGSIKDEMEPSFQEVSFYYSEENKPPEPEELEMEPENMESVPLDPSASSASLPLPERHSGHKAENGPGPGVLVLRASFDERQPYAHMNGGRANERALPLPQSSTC
T8 sequence (P24062 31-1370 limits assumed): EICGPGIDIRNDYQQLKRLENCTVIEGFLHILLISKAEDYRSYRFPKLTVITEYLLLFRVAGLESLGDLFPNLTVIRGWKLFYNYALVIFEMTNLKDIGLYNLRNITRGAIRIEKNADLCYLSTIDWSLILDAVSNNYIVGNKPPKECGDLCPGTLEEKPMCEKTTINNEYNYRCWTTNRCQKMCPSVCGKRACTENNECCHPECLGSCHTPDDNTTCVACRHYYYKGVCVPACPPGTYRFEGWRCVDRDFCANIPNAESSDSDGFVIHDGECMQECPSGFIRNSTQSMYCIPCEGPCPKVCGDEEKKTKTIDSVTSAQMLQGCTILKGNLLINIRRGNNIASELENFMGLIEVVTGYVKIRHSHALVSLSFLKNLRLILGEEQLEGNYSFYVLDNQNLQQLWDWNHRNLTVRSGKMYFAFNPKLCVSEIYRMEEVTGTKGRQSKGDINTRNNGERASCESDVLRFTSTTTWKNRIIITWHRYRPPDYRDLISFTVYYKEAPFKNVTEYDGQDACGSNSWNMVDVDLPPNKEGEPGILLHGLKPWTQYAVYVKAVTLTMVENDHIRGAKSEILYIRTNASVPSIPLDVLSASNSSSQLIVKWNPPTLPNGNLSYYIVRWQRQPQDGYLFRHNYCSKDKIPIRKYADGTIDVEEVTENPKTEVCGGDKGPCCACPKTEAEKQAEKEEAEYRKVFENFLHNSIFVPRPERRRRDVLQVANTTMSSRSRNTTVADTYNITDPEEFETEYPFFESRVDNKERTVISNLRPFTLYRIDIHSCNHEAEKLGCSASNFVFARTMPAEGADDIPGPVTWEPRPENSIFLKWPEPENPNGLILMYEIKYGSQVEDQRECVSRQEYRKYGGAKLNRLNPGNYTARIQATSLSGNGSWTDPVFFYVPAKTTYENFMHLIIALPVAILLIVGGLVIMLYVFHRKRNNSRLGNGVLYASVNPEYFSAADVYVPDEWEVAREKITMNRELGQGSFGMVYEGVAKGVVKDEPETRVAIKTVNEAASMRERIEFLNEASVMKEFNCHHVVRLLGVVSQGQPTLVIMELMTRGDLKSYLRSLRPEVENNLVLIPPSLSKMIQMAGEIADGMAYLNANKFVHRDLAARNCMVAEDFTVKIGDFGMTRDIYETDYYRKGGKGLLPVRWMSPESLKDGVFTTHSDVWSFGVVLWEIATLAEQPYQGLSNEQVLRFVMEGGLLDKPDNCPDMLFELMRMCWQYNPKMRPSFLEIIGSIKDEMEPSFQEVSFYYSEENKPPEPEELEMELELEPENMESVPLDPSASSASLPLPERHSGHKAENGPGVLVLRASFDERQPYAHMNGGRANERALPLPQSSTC
T5 sequence (P24062 other isoform, or with tags, fused parts or gaps limits assumed): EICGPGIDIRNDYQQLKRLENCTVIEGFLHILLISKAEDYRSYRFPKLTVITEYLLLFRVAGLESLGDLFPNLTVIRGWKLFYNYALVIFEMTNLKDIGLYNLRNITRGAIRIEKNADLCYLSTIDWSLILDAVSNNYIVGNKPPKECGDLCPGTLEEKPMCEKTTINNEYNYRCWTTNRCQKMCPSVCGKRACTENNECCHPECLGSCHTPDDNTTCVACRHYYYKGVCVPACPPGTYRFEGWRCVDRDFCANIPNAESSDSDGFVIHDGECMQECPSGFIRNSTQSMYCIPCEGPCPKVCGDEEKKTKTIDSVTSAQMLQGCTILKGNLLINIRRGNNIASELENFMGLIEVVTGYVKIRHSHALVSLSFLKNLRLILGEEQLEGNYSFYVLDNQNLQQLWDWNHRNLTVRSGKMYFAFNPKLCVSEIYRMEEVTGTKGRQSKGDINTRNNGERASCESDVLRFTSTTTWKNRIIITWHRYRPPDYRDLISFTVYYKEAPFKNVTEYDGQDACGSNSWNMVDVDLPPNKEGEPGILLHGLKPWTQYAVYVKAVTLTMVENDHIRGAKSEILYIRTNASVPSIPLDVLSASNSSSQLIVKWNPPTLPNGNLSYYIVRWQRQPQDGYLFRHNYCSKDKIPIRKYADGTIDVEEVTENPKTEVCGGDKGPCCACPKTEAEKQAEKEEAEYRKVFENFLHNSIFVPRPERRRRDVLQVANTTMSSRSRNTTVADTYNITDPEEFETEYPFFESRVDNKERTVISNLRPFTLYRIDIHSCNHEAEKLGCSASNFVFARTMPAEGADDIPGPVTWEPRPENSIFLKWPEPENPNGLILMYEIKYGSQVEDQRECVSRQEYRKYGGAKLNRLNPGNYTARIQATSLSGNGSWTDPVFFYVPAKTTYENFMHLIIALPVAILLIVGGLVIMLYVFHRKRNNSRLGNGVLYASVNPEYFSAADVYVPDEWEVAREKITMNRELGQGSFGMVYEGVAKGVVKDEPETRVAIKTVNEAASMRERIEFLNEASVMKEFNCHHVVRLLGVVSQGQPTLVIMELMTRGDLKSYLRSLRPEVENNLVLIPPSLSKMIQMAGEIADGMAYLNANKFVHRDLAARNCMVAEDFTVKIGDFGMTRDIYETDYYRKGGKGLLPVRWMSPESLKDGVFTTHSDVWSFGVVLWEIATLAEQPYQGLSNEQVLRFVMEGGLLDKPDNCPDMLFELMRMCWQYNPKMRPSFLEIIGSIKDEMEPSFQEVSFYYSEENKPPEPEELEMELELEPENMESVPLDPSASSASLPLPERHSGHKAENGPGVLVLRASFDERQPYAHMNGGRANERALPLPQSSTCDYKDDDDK

absorbance at 450 nm [1]: ≥ 2 absorbance at 450 nm
absorbance at 450 nm [2]: ~1 absorbance at 450 nm
absorbance at 450 nm [3]: ≥ 2 absorbance at 450 nm
absorbance at 450 nm [4]: ≥ 2 absorbance at 450 nm
absorbance at 450 nm [5]: ~1 absorbance at 450 nm
binding result (mouse IGF-I receptor): no binding (tested: 10 nM)
binding result (rat IGF-I receptor): no binding (tested: 10 nM)
Avidity (absorbance difference 450-550 nm, Mock cells = 1) (hINSR[L2]/hIGFIR): 5.6 fold of Mock cells
Avidity (absorbance difference 450-550 nm, Mock cells = 1) (hIGFIR[L1-L2]/hINSR): 5.5 fold of Mock cells
Avidity (absorbance difference 450-550 nm, Mock cells = 1) (hINSR[L1]/hIGFIR): 5.7 fold of Mock cells
Avidity (absorbance difference 450-550 nm, Mock cells = 1) (hINSR[L1-L2]/hIGFIR): 1.5 fold of Mock cells
B1: IGF11-16 (antibody, mouse IgG1, kappa, V domains shown)
VH: QIQLQQPGAELVKPGASVKLSCKAPGYTFTSYWMHWVKQRPGQGLEWIGETNPSNSVTNYNEKFKSKATLTVDKSSSTAYMQLSSLTSEDSAVYYCTIGRGRGFAYWGQGTLVTVSA
VL: DIQMNQSPSSLSASLGDTITITCRASQNINFWLSWCQQKPGNIPKLLIYKASNLHTGVPSRFSGSGSGTDFTLTISSLQPEDIATYYCLQGQSYPYTFGGGTKLEIKR
notes: no cleavage site is stated; also called IGF-I receptor agonist antibody; IGF11-16 antibody
binding result (human insulin receptor): no binding (tested: 0.5 nM and 5 nM; 1.5-fold of Mock cells)
